Test results: publication PMC5969902
Where “and” joins values, the source holds several entries; their conditions need not be identical. Identical values can stand only once.

Experiments:
[1] = target: actin filament barbed ends elongating from unlabeled rabbit skeletal muscle actin (rabbit) (UniProt P68135); assay: single-filament microfluidics with fluorescence microscopy; survival of formin-bound barbed ends, exponential fit; 1 µM unlabeled actin, no profilin; KCl and configuration not given
[2] = target: actin filament barbed ends elongating from unlabeled rabbit skeletal muscle actin (rabbit) (UniProt P68135); assay: single-filament microfluidics with fluorescence microscopy; survival of formin-bound barbed ends, exponential fit; 0.5 µM unlabeled actin, no profilin; KCl and configuration not given
[3] = target: actin filament barbed ends elongating from unlabeled rabbit skeletal muscle actin (rabbit) (UniProt P68135); assay: single-filament microfluidics with fluorescence microscopy; survival of formin-bound barbed ends, exponential fit; 1 µM unlabeled actin, 5 µM profilin; KCl and configuration not given
[4] = target: actin filament barbed ends elongating from unlabeled rabbit skeletal muscle actin (rabbit) (UniProt P68135); assay: single-filament microfluidics with fluorescence microscopy; survival of formin-bound barbed ends, exponential fit; 2 µM unlabeled actin, 5 µM profilin; KCl and configuration not given
[5] = target: actin filament barbed ends elongating from unlabeled rabbit skeletal muscle actin (rabbit) (UniProt P68135); assay: single-filament microfluidics with fluorescence microscopy; survival of formin-bound barbed ends, exponential fit; 3 µM unlabeled actin, 5 µM profilin; KCl and configuration not given
[6] = target: actin filament barbed ends elongating from unlabeled rabbit skeletal muscle actin (rabbit) (UniProt P68135); assay: single-filament microfluidics with fluorescence microscopy; survival of formin-bound barbed ends, exponential fit; 1 µM unlabeled actin, 10 µM profilin; KCl and configuration not given
[7] = target: actin filament barbed ends elongating from unlabeled rabbit skeletal muscle actin (rabbit) (UniProt P68135); assay: single-filament microfluidics with fluorescence microscopy; survival of formin-bound barbed ends, exponential fit; 2 µM unlabeled actin, 10 µM profilin; KCl and configuration not given
[8] = target: actin filament barbed ends elongating from unlabeled rabbit skeletal muscle actin (rabbit) (UniProt P68135); assay: single-filament microfluidics with fluorescence microscopy; survival of formin-bound barbed ends, exponential fit; 3 µM unlabeled actin, 10 µM profilin; KCl and configuration not given
mDia1 FH1 = mDia1 FH1 (UniProt O08808); details: cited from earlier work

Chain of profilin (P07274 whole entry): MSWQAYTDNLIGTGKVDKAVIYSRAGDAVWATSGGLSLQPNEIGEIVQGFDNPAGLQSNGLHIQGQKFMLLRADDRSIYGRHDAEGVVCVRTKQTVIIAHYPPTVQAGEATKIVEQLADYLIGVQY

Substance	koff [1]	koff [2]	koff [3]	koff [4]	koff [5]	koff [6]	koff [7]	koff [8]	Kd (mDia1 FH1)
mDia1(FH2-DAD) (from UniProt O08808 1-1255) (domain or fragment)	0.0047 s⁻¹ and 0.0089 s⁻¹	0.004 s⁻¹	0.0031 s⁻¹ and 0.0025 s⁻¹ and 0.0051 s⁻¹	0.0042 s⁻¹	0.0063 s⁻¹ and 0.0085 s⁻¹	0.0025 s⁻¹ and 0.0036 s⁻¹	0.00226 s⁻¹	0.0064 s⁻¹	
profilin (from UniProt P07274)									> 100 µM
